Reference: patent US20070287629A1 (MAX PLANCK GESELLSCHAFT ZUR FOERDERUNG DER WISSENSCHAFTEN E …, published 2007)

Key:
[1] = biological target: 14-3-3-FC complex (tobacco 14-3-3c saturated with fusicoccin) (Nicotiana tabacum (tobacco)) (UniProt P93343)
[2] = biological target: Tobacco 14-3-3c (Gene bank AAC49892, amino acids 1-260 with an N-terminal His-tag) (Nicotiana tabacum (tobacco)) (UniProt P93343); experiment: ITC; peptide into unliganded 14-3-3c
[3] = biological target: 14-3-3-FC complex (tobacco 14-3-3c saturated with fusicoccin) (Nicotiana tabacum (tobacco)) (UniProt P93343); experiment: ITC; peptide into the 14-3-3-FC complex
[4] = biological target: 14-3-3-FC complex (tobacco 14-3-3c saturated with fusicoccin) (Nicotiana tabacum (tobacco)) (UniProt P93343); experiment: isothermal titration calorimetry, […]
[5] = biological target: Tobacco 14-3-3c (Gene bank AAC49892, amino acids 1-260 with an N-terminal His-tag) (Nicotiana tabacum (tobacco)) (UniProt P93343); experiment: isothermal titration calorimetry, peptide titrated into 14-3-3c alone, 35 °C
[6] = biological target: Tobacco 14-3-3c (Gene bank AAC49892, amino acids 1-260 with an N-terminal His-tag) (Nicotiana tabacum (tobacco)) (UniProt P93343); experiment: ITC; phosphopeptide (0.5 mM) titrated into 14-3-3c (0.05 mM), 25 mM HEPES pH 6.5, 35 °C, single-site fit; peptide to unliganded 14-3-3c, no fusicoccin; ITC, pH 6.5, 35 C
[7] = biological target: the molecule itself; experiment: X-ray crystal structure (homodimer)
Experimental: Tobacco 14-3-3c (Gene bank AAC49892, amino acids 1-260 with an N-terminal His-tag) was expressed recombinantly in E.coli and purified via standard procedures. Fusicoccin was purchased from Sigma. Phosphopeptides were synthesized by Biosyntan (Berlin). […] They were soaked with ligands for 4 hours (fusicoccin) or 20 minutes (peptide) in precipitant solution supplemented to 30% PEG 400 and cryoprotectant (precipitant solution supplemented to 35% PEG 400, 8% Isopropanol) prior to freezing in liquid N₂.

Molecule	fold increase of binding affinity by fusicoccin [1] [fold]	-TΔS [2] [kcal/mol]	ΔH [2] [kcal/mol]	-TΔS [3] [kcal/mol]	ΔH [3] [kcal/mol]	Kd [4] [µM]	ΔG [4] [kcal/mol]	ΔG [5] [kcal/mol]	Kd [6] [µM]	binding result [7]
phosphopeptide Gln-Ser-Tyr-pThr-Val (QSYpTV), C-terminal end of PMA2, a H+-ATPase isoform from N. plumbaginifolia	93	1.7	-10	0.4	-11.8	0.027	-11.4	-8.3	2.5	–
Tobacco 14-3-3c (Gene bank AAC49892, amino acids 1-260 with an N-terminal His-tag) (other, Expressed in E. coli; one monomer in the asymmetric unit; also called plant 14-3-3c; Nicotiana tabacum 14-3-3 isoform c; not shown: N-terminal His-tag) MAVAPTAREENVYMAKLAEQAERYEEMVEFMEKVSNSLGSEELTVEERNLLSVAYKNVIGARRASWRIISSIEQKEESRGNEEHVNSIREYRSKIENELSKICDGILKLLDAKLIPSAASGDSKVFYLKMKGDYHRYLAEFKTGAERKEAAESTLTAYKAAQDIATTELAPTHPIRLGLALNFSVFYYEILNSPDRACNLAKQAFDEAIAELDTLGEESYKDSTLIMQLLRDNLTLWTSDMQDDGADEIKEDPKPDEAKN	–	–	–	–	–	–	–	–	–	binds
